Results on four molecules are retold here after paper PMC8233230, “RAD51AP1 mediates RAD51 activity through nucleosome interaction” (The Journal of Biological Chemistry, 2021).

Data set [1] has as its target mononucleosome core particle (NCP) (human) (UniProt P04908). Put plainly: native gel or EMSA; apparent; full-length RAD51AP1 with the NCP, free NCP band quantified after ethidium bromide staining, corrected for the diminished staining of NCP-bound DNA.
Data set [2] has as its system RAD51AP1 full-length, His6/FLAG (human). The data set can be described thus: EMSA. Particulars: apparent, EMSA: 50 mM Tris-HCl pH 7.5, 100 mM NaCl, 4 C, 30 min, native 5% PAGE in 0.2x TBE. In general terms: In EMSA bound probe runs differently from free probe, usually more slowly.
For data set [3], the target named is T1, purified human RAD51 (human, UniProt Q06609 1-339).
T1 construct: DNA repair protein RAD51 homolog 1 (RAD51 recombinase), human; also called RAD51 recombinase; source: purified
T1 sequence (looked up): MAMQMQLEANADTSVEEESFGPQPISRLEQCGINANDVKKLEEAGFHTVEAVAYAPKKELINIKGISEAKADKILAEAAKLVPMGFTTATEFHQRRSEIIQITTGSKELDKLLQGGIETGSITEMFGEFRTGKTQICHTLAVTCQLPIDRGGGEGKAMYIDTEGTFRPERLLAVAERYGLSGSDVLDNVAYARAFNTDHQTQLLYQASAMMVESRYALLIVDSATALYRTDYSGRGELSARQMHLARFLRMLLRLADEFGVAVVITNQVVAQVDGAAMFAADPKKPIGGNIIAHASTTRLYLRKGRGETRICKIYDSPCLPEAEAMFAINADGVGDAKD
The data set can be described thus: far-Western, overlay or dot blot; RAD51AP1/NCP complex separated by EMSA (native gel), transferred to PVDF, membrane incubated with 3 ug/ml purified RAD51 in buffer I at 4 C overnight, bound RAD51 detected with anti-RAD51. The settings on record: both partners purified.

On to “full-length MBP-/His6-RAD51AP1 (from UniProt Q96B01-2 1-335) (natural protein)”, for which the Kd in data set [1] is 21 nM.

As for NCP (Widom 601, 147 bp), the Kd in data set [2] (corrected for EtBr staining (111/5.2; uncorrected 111 nM), 0.2 uM NCP) amounted to 21 nM.

Take 147 bp dsDNA (Widom 601): the Kd in data set [2] (0.1 uM DNA, EtBr stain) was 12 nM.

B1: His6-/FLAG-tagged human RAD51AP1 (natural protein, UniProt Q96B01-2 1-335, looked up)
chain: MVRPVRHKKPVNYSQFDHSDSDDDFVSATVPLNKKSRTAPKELKQDKPKPNLNNLRKEEIPVQEKTPKKRMALDDKLYQRDLEVALALSVKELPTVTTNVQNSQDKSIEKHGSSKIETMNKSPHISNCSVASDYLDLDKITVEDDVGGVQGKRKAASKAAAQQRKILLEGSDGDSANDTEPDFAPGEDSEDDSDFCESEDNDEDFSMRKSKVKEIKKKEVKVKSPVEKKEKKSKSKCNALVTSVDSAPAAVKSESQSLPKKVSLSSDTTRKPLEIRSPSAESKKPKWVPPAASGGSRSSSSPLVVVSVKSPNQSLRLGLSRLARVKPLHPNATST
notes: numbers count on: RAD51AP1 isoform 2; also called His6/FLAG-tagged RAD51AP1; full-length FLAG-tagged RAD51AP1; source: expressed and purified
As to B1, the binding result in data set [3] is given as “binds”.
